According to US20110021611A1:

Molecular target: CD81 on Huh7.5 cells (human) (UniProt P60033)
Test: cell-based or functional assay

Chain of UniProt P60033 (P60033 whole entry): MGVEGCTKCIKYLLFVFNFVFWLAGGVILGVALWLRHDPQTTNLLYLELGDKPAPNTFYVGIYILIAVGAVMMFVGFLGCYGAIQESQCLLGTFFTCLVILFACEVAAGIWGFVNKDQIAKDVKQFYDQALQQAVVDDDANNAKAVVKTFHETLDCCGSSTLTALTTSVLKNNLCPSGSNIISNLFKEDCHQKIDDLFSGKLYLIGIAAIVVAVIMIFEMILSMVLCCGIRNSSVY

In the case of “anti-CD81 (JS-81, BD Biosciences, Pharmingen) (antibody)”, the inhibition of infection of Huh7.5 cells with SA13/JFH1C3405G-A3696G virus (FFU count) is reported as 90 % inhibition.
